Target: T1, J-binding protein 1 (JBP1) (Crithidia fasciculata) (UniProt Q9U6M2)
T1 sequence: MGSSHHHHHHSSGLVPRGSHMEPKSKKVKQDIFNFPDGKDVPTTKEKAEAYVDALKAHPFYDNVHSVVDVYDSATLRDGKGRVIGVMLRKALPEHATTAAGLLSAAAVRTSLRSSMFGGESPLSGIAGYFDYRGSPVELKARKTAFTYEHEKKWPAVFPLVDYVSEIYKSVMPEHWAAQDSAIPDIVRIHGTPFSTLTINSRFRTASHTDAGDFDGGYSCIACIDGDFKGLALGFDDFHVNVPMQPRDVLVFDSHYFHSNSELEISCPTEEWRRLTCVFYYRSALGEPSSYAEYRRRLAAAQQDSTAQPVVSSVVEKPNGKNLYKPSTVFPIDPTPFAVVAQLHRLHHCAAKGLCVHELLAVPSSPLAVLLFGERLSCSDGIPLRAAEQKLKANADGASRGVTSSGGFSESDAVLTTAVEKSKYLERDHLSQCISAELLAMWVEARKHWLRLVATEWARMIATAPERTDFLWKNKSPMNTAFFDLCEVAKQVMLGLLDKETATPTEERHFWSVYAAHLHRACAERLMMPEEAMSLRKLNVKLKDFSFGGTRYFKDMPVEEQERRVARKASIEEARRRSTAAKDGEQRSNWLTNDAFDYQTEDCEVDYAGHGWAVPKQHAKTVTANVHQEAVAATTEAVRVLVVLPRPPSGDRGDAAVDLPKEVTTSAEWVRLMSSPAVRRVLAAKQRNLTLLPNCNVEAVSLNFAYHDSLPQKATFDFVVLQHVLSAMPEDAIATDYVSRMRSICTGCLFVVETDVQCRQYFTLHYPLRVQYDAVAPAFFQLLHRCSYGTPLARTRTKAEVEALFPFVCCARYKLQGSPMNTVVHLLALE
Assay: pulldown
Conditions: beta-glucosyl-5hmC in place of all C (outside primers); 132 ng JBP1 beads, 10 ng DNA, 150 mM NaCl, 10 mM Tris pH 8.0, 2 mM EDTA, room temperature

Substance: pUC18 2.7 kb PCR product, beta-glu-5hmC
- binding signal (% DNA pulled down): < 6

— patent US9677128
